Measurements: patent publication US8822187B1, “Polypeptides, nucleic acid molecules, and methods for synthesis of triterpenes” (University of Kentucky Research Foundation, priority 2011, dated 2014)

Experiments:
[1] = Secondary enzyme assays of SSL-3 or SSL-2 with PSPP versus FPP; type: biochemical; settings: 2 mM NADPH, 1 μg enzyme, 37° C., 15 min
Experimental: Two primary enzyme assays (500 μl) were set up with 20 μg of purified SSL-1 or Nicotiana benthamiana squalene synthase (TSS) plus 40 μM ^3H-FPP. The assays were incubated at 37° C. for 1 h, then extracted 3× with 500 μl water saturated 1-butanol, pooled, and evaporated under a stream of nitrogen gas. The white residue was resuspended in 50 μl of 25 mM NH4HCO3 in 70% ethanol (v/v). An aliquot of the resuspension was analyzed by the acid phosphatase assay (described in supplemental FIG. 4) and shown to consist of 45% and 40% PSPP for the SSL-1 and TSS primary incubations, respectively. […] It was calculated that 1 μl of each resuspension contained ˜150 pmoles of 3H-PSPP. […] For comparison, enzyme assays were also set up containing 3 μM ^3H-FPP, 2 mM NADPH and either 1 μg each of SSL-1 plus SSL-3, or SSL-1 plus SSL-2. Additional control assays contained 5 μM ^3H-FPP, 2 mM NADPH, and either 1 μg of SSL-3 or SSL-2. The reactions were incubated at 37° C. for 15 min, stopped by addition of 50 μl 0.5 M EDTA, and extracted with 100 μl n-hexane. Aliquots of the hexane extracts, along with standards of squalene and botryococcene, were separated by silica TLC using n-hexane as the developing solvent. Standards were visualized with iodine vapors and the corresponding zones were analyzed by scintillation spectroscopy. […]

[2] = Substrate specificity of SSL-2 (bisfarnesyl ether formation); type: biochemical; settings: 37° C., 1 h
Experimental: The radioactivity incorporated in the zones corresponding to bisfarnesyl ether were determined by scintillation counting. Data represents mean±S.E.M.

[3] = Purified SSL-1 mixed with B. braunii algal cell-free lysate, incorporation of radiolabeled FPP into botryococcene; type: biochemical, Botryococcus braunii; settings: purified SSL-1 mixed with algal cell-free lysate
Experimental: FIG. 4 depicts the dependence of the squalene synthase-like-1 enzyme on algal lysate for botryococcene biosynthesis. […] The SSL-1 gene containing a 5′ terminal sequence coding for a hexa-histidine tag was over-expressed in E. coli and the corresponding enzyme purified by cobalt affinity chromatography according to the manufacturer (Sigma). B. braunii lysate was prepared from cells collected at the indicated stages of culture development according to the procedure described by Okada, S. et al. (Arch Biochem Biophys 422: 110-118) and 10 μg of lysate protein was used per assay. Assays were incubated at 37° C. for 1 h, then the reaction products extracted with hexane. Aliquots of the hexane extracts was separated by silica TLC and the radioactivity migrating to zones corresponding to authentic standards of botryococcene and squalene determined by scintillation counting. Data represents mean±s.e.m.
Typical enzyme assays were initiated by mixing aliquots of purified enzyme with 50 mM Mops, pH 7.3, 20 mM MgCl2, 2.5 mM 2-mercaptoethanol, 10 μM [1-^3H]-FPP (˜2×10^5 dpm total), and 2 mM NADPH in total reaction volume of 50 μl. Reactions were incubated at 37° C. for 1 h and then extracted with 100 μl n-hexane or 100 ul MTBE. […] The standards were visualized with iodine vapors and TLC zones corresponding to the standards were scrapped and analyzed by scintillation spectrometry. […]

[4] = Michaelis-Menten enzyme kinetics of the SSL-1 reaction (3H-FPP to PSPP); type: biochemical; settings: after acid phosphatase dephosphorylation
Experimental: FIG. 5 depicts Michaelis-Menten enzyme kinetics of the SSL-1 reaction. Enzyme assays (50 μl) were set up as described in the methods section with purified SSL-1 (0.2-1.0 μg), 0.1% triton X-100, ±2 mM NADPH, and the indicated concentration of ^3H-FPP. Assays were incubated for 15 min at 37° C. and stopped by addition of 50 μl 0.5 M EDTA. The reactions were then extracted 3× with 200 μl water saturated 1-butanol and pooled in a 4 ml glass screw cap vial. […] The standards were visualized with iodine vapors and the zones corresponding to FOH (rf=0.65) and PSOH (rf=0.45) were scraped and analyzed by scintillation spectroscopy. […] The data was analyzed using the SigmaPlot Enzyme Kinetics 1.3 software. […]
Typical enzyme assays were initiated by mixing aliquots of purified enzyme with 50 mM Mops, pH 7.3, 20 mM MgCl2, 2.5 mM 2-mercaptoethanol, 10 μM [1-^3H]-FPP (˜2×10^5 dpm total), and 2 mM NADPH in total reaction volume of 50 μl. […] The standards were visualized with iodine vapors and TLC zones corresponding to the standards were scrapped and analyzed by scintillation spectrometry. […] Extracts were resuspended in 50 μl hexane and an aliquot analyzed by GC-MS with a Varian CP-3800 GC coupled to a Varian Saturn 2200 MS/MS (Varian Medical Systems) using a Supelco SLB-5 ms fused silica capillary column (30 m×0.25 mm×0.25 μM film thickness, Supelco). […]

[5] = substrate: CC(C)=CCC/C(C)=C/CC/C(C)=C/CO[P@@](=O)(O)OP(=O)(O)O; experiment: purified protein, by the assay type; settings: other: purified SSL-1, 3H-FPP, 0.1% triton X-100, 15 min at 37° C., PSPP as sole reaction product

| Molecule | biosynthesis from PSPP versus FPP [1] | Bisfarnesyl ether formed ([2]; substrate 10 μM 1-3H-FPP) | Bisfarnesyl ether formed ([2]; substrate 10 μM 1-3H-farnesol) [pmoles /h · μg protein] | Bisfarnesyl ether formed ([2]; substrate 10 μM FPP + 10 μM 1-3H-farnesol) | enhancement of NAD(P)H-dependent botryococcene biosynthesis [3] | input radioactivity recovered as FOH and PSOH [4] | Km [5] [µM] | kcat [5] [s⁻¹] |
| --- | --- | --- | --- | --- | --- | --- | --- | --- |
| SSL-2: Botryococcus braunii race B squalene synthase-like 2 enzyme; bacterial form is truncated SSL-2-tr2 (protein) MVKLVEVLQHPDEIVPILQMLHKTYRAKRSYKDPGLAFCYGMLQRVSRSFSVVIQQLPDELRHPICVFYLILRALDTVEDDMNLPNEVKIPLLRTFHEHLFDRSWKLKCGYGPYVDLMENYPLVTDVFLTLSPGAQEVIRDSTRRMGNGMADFIGKDEVHSVAEYDLYCHYVAGLVGSAVAKIFVDSGLEKENLVAEVDLANNMGQFLQKTNVIRDYLEDINEEPAPRMFWPREIWGKYAQELADFKDPANEKAAVQCLNHMVTDALRHCEIGLNVIPLLQNIGILRSCLIPEVMGLRTLTLCYNNPQVFRGVVKMRRGETAKLFMSIYDKRSFYQTYLRLANELEAKCKGEASGDPMVATTLKHVHGIQKSCKAALSSKELLAKSGSALTDDPAIRLLLLVGVVAYFAYAFNLGDVRGEHGVRALGSILDLSQKGLAVASVALLLLVLLARSRLPLLTSASSKQ | efficiently catalyze the biosynthesis of squalene and botryococcene, respectively, from PSPP but not FPP | 13.5 +/− 3.3 pmoles /h · μg protein | 0 | 16.3 +/− 0.4 pmoles /h · μg protein | – | – | – | – |
| Botryococcus braunii race B squalene synthase-like 1 (SSL-1), wild type, hexa-histidine tagged, SEQ ID NO: 2 (Botryococcus braunii) (protein) MTMHQDHGVMKDLVKHPNEFPYLLQLAATTYGSPAAPIPKEPDRAFCYNTLHTVSKGFPRFVMRLPQELQDPICIFYLLLRALDTVEDDMNLKSETKISLLRVFHEHCSDRNWSMKSDYGIYADLMERFPLVVSVLEKLPPATQQTFRENVKYMGNGMADFIDKQILTVDEYDLYCHYVAGSCGIAVTKVIVQFNLATPEADSYDFSNSLGLLLQKANIITDYNEDINEEPRPRMFWPQEIWGKYAEKLADFNEPENIDTAVKCLNHMVTDAMRHIEPSLKGMVYFTDKTVFRALALLLVTAFGHLSTLYNNPNVFKEKVRQRKGRIARLVMSSRNVPGLFRTCLKLANNFESRCKQETANDPTVAMTIKRLQSIQATCRDGLAKYDTPSGLKSFCAAPTPTK | – | – | – | – | up to 10 fold | greater than 95% | 12.8 | 0.027 |
